Data on one protein can be found in PMC4687705, “Plasma levels of OLFM4 in normals and patients with gastrointestinal cancer” (Journal of Cellular and Molecular Medicine, 2015).

This data set deals with the molecule itself. Nature of the data set: western blot after SDS-PAGE under reducing and non-reducing conditions; isolated specific granules of human neutrophils, blotted with anti-OLFM4 clone #49; 12% polyacrylamide gels. In general terms: A western blot detects proteins with antibodies after separation by electrophoresis.

B1: Olfactomedin 4 (OLFM4) (natural protein)
chain: not shown
modifications: highly glycosylated (sites not given); intermolecular disulphide bonds (cysteines not given)
notes: Olfactomedin 4, human, native protein from specific granules of neutrophils; 72 kD under reducing conditions; Multimer of unstated size; also called hGC-1; GW112
With B1, the binding result was “binds”.
